Publication PMC10746525 (2023)
Values joined by “and” are separate entries in the source; they are usually repeats but may differ in a detail not shown here. Equal entries are not always repeated. Where two headings read alike, the source gives them in different places. Each block holds one binder with its values, some of them ahead of it.

B1: MBP-TRAK1_(342-431) (domain or fragment)
chain: EAQEELKNLRNKTMPNTTSRRYHSLGLFPMDSLAAEIEGTMRKELQLEEAESPDITHQKRVFETVRNINQVVKQRSLTPSPMNIPGSNQS
B2: MIRO1_(177-591) (domain or fragment)
chain: EEKEMKPACIKALTRIFKISDQDNDGTLNDAELNFFQRICFNTPLAPQALEDVKNVVRKHISDGVADSGLTLKGFLFLHTLFIQRGRHETTWTVLRRFGYDDDLDLTPEYLFPLLKIPPDCTTELNHHAYLFLQSTFDKHDLDRDCALSPDELKDLFKVFPYIPWGPDVNNTVCTNERGWITYQGFLSQWTLTTYLDVQRCLEYLGYLGYSILTEQESQASAVTVTRDKKIDLQKKQTQRNVFRCNVIGVKNCGKSGVLQALLGRNLMRQKKIREDHKSYYAINTVYVYGQEKYLLLHDISESEFLTEAEIICDVVCLVYDVSNPKSFEYCARIFKQHFMDSRIPCLIVAAKSDLHEVKQEYSISPTDFCRKHKMPPPQAFTCNTADAPSKDIFVKLTTMAMYPHVTQADLKSST

Experiments:
[1] = molecular target: B2; experiment: ITC
[2] = molecular target: B2; experiment: ITC; remark: listed apart in the source
[3] = molecular target: T1, MIRO1_(177-591) E328A (human, UniProt Q8IXI2 177-591, E328A); experiment: ITC; 5 mM EGTA, 1 mM MgCl2, 0.1 uM GTP; experiment 1
[4] = molecular target: T2, MIRO1_(177-591) E208A (human, UniProt Q8IXI2 177-591, E208A); experiment: as above
[5] = molecular target: T1, MIRO1_(177-591) E328A; experiment: ITC; 5 mM EGTA, 1 mM MgCl2, 0.1 uM GTP; experiment 3
[6] = molecular target: T2, MIRO1_(177-591) E208A; experiment: as above
[7] = molecular target: B2; experiment: ITC; remark: listed apart in the source
[8] = molecular target: T1, MIRO1_(177-591) E328A; experiment: ITC; 5 mM EGTA, 1 mM MgCl2, 0.1 uM GTP; experiment 2
[9] = molecular target: T2, MIRO1_(177-591) E208A; experiment: as above
[10] = molecular target: T1, MIRO1_(177-591) E328A; experiment: ITC; 5 mM EGTA
[11] = molecular target: T2, MIRO1_(177-591) E208A; experiment: ITC; 5 mM EGTA
[12] = molecular target: T3, MBP-TRAK1_(342-431) ^400KR^401 to AA (human, UniProt Q9UPV9 342-431, ^400KR^401 to AA); experiment: ITC; 5 mM EGTA; MIRO1 in syringe
T3 sequence: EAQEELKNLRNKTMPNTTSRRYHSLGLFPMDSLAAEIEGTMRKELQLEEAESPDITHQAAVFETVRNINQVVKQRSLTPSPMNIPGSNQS

[13] = molecular target: T3, MBP-TRAK1_(342-431) ^400KR^401 to AA; experiment: ITC; 5 mM EGTA, 1 mM MgCl2, 0.1 uM GTP; experiment 1
[14] = molecular target: T3, MBP-TRAK1_(342-431) ^400KR^401 to AA; experiment: ITC; 5 mM EGTA, 1 mM MgCl2, 0.1 uM GTP; experiment 3
[15] = molecular target: T3, MBP-TRAK1_(342-431) ^400KR^401 to AA; experiment: ITC; 5 mM EGTA, 1 mM MgCl2, 0.1 uM GTP; reverse titration, experiment 2
[16] = molecular target: T3, MBP-TRAK1_(342-431) ^400KR^401 to AA; experiment: ITC; 5 mM EGTA, 1 mM MgCl2, 0.1 uM GTP; reverse titration, experiment 1
[17] = molecular target: T3, MBP-TRAK1_(342-431) ^400KR^401 to AA; experiment: ITC; 5 mM EGTA, 1 mM MgCl2, 0.1 uM GTP; reverse titration, experiment 3
[18] = molecular target: T3, MBP-TRAK1_(342-431) ^400KR^401 to AA; experiment: ITC; 5 mM EGTA; TRAK1 in syringe
[19] = molecular target: B1; experiment: ITC
[20] = molecular target: T4, GCN4-TRAK1_(342-431) ( | human, UniProt Q9UPV9 342-431); experiment: ITC
T4 chain: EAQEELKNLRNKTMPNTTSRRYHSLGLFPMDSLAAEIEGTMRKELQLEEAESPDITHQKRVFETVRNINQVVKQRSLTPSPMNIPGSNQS

[21] = molecular target: T3, MBP-TRAK1_(342-431) ^400KR^401 to AA; experiment: ITC; 5 mM EGTA, 1 mM MgCl2, 0.1 uM GTP; experiment 2

- Kd [1]: 4.39 µM
- Kd [2]: 9.62 µM and 6.1 µM and 5.65 µM
Binder: PDITHQKRVFETVRNINQVVKQRSLTPSPMNIPGSNQSSAM [TRAK1_(394-434)]

Binder: B1
- Kd [3]: 9.17 µM
- Kd [4]: 8.85 µM
- Kd [5]: 10.3 µM
- Kd [6]: 3.86 µM
- Kd [7]: 10.6 µM
- Kd [8]: 10.1 µM
- Kd [9]: 9.09 µM
- Kd [10]: 10.1 µM
- Kd [11]: 9.09 µM

Binder: B2
- Kd [12]: 7.52 µM
- Kd [13]: 4.39 µM
- Kd [14]: 3.98 µM
- Kd [15]: 11.3 µM
- Kd [16]: 7.52 µM
- Kd [17]: 8.55 µM
- Kd [18]: 9.62 µM
- Kd [19]: 5.95 µM and 6.02 µM and 8 µM and 5.38 µM
- Kd [20]: 3.52 µM and 9.35 µM
- Kd [21]: 2.98 µM
